Experimental data as given in US7005258B1, “Cdc25 genes, encoded products and uses thereof” (The National Institutes of Health, priority 1991, dated 2006).
One block for each molecule: values may come before it.

How the values were obtained:
[1] = target: T1, human cdc25 B (GST fusion protein) (Homo sapiens, UniProt P30305); assay: cdc25 B tyrosine phosphatase assay, pH 8.8; format: biochemical; conditions: p13 at 25 mM, in the presence or absence of cyclin B
T1 construct: An 2.4 kb Smal fragment from the p4×1.2 plasmid encoding amino acids 32–566 was subcloned; made in house; host or cells: E. coli (bacteria)
T1 sequence (P30305 32-566 isoform P30305-2): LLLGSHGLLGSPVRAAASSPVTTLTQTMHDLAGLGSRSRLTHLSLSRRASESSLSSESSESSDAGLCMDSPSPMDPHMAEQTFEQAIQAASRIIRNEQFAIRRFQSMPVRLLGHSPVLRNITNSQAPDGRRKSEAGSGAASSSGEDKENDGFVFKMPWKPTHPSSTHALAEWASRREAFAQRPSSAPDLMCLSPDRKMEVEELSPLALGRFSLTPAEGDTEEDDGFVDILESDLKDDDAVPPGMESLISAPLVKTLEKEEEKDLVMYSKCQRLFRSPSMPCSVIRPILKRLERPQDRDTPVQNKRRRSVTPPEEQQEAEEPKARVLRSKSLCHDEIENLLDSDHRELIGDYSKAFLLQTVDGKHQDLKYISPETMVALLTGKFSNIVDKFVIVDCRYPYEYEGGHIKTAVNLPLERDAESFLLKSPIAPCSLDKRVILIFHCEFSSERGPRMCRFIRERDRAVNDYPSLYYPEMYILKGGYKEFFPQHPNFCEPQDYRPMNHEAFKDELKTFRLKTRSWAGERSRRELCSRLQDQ

[2] = target: T2, human cdc25 A (GST fusion protein) (Homo sapiens, UniProt P30304); assay: cdc25 A tyrosine phosphatase assay with 32P-RCML substrate; format: biochemical
T2 construct: A plasmid containing the entire open reading frame of human cdc25 A was digested with Ncol (at amino acid 1); made in house; host or cells: E. coli (bacteria)
T2 sequence (P30304 1-524): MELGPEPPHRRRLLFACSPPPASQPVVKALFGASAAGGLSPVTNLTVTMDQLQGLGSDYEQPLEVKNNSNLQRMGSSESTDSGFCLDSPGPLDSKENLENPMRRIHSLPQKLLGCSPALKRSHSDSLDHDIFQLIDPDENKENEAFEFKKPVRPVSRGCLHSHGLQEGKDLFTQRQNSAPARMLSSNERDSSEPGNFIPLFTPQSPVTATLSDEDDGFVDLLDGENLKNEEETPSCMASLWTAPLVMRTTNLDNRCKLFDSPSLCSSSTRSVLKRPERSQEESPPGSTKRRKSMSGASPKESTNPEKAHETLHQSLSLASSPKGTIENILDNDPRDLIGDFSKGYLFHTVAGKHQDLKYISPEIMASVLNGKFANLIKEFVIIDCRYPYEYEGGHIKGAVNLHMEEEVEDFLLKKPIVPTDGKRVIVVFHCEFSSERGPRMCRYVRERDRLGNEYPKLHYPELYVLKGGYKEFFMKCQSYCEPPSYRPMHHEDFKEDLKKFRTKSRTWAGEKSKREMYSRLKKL
Procedure: A plasmid containing the entire open reading frame of human cdc25 A was digested with Ncol (at amino acid 1), blunt ended with T4 DNA polymerase, heat inactivated, extracted with phenolchlorophorm, ethanol precipitated and digested with EcoRI. The resultant 2.0 kb fragment was gel-purified and ligated into pGEX-2T Smal/EcoRI digested vector. Resultant plasmid upon transformation into bacteria gave rise to a 90 kd IPTG-inducible protein. […] Absorbance at 410 nm was determined using a molar absorptivity of 1.78×10^4M^−1 cm^−1 to calculate the concentration of the p-nitrophenolate ion generated in the assay. […]
Reduced carboxamidomethylated and maleylated lysozyme (RCML) was obtained from N. Tonks in a ^32P-tyrosine phosphorylated form. […] Reactions ([…]) were performed at 30° C. for 10 or 20 min, and after addition of the fatty acid free bovine serum albumin (BSA, Sigma) to 2 mg/ml, proteins were precipitated with […] of 20% trichloroacetic acid, vortexed, incubated at −70° C. for 5 min, thawed, spun in an Eppendorf centrifuge for 5–10 min at the maximal speed and […] supernatants were counted in 2 ml Aquasol (NEN) for 10 min. […]

effect on the activity of cdc25 B [1]: no effect
inhibition of the endogenous phosphatase activity of cdc25 A ([2]; p13 at 25 mM, without cyclin B1): 2–3 fold
B1: p13: p13 protein encoded by the suc1 gene, an essential subunit of the cdc2 protein kinase (protein)
chain: MSKSGVPRLLTASERERLEPFIDQIHYSPRYADDEYEYRHVMLPKAMLKAIPTDYFNPETGTLRILQEEEWRGLGITQSLGWEMYEVHVPEPHILLFKREKDYQMKFSQQRGG

B2: D: murine cyclin D1 (CYL1) expressed as fusion protein with GST (protein)
chain: MEHQLLCCEVETIRRAYPDTNLLNDRVLRAMLKTEETCAPSVSYFKCVQKEIVPSMRKIVATWMLEVCEEQKCEEEVFPLAMNYLDRFLSLEPLKKSRLQLLGATCMFVASKMKETIPLTAEKLCIYTDNSIRPEELLQMELLLVNKLKWNLAAMTPHDFIEHFLSKMPEADENKQTIRKHAQTFVALCATDVKFISNPPSMVAAGSVVAAMQGLNLGSPNNFLSCYRTTHFLSRVIKCDPDCLRACQEQIEALLESSLRQAQQNVDPKATEEEGEVEEEAGLACTPTDVRDVDI
modifications: left off: a dimerising Fc or GST
effect on the endogenous phosphatase activity of cdc25 A ([2]; RCML substrate, 10 pmoles of cyclin and cdc25 protein): neither stimulatory nor inhibitory effect
